Laboratory results from patent EP2170953B1.

Target: Aβ1-28 peptide, biotinylated (Anaspec)
Experiment: ELISA on biotinylated peptide, Ab 10 µg/ml, mean of 2, background subtracted
Conditions: remark: other sources report otherwise

Aβ1-28 peptide, biotinylated (Anaspec), sequence (chain, as listed by the source): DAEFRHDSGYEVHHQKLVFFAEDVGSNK

B1: ACI-12-Ab-11 (antibody, V domains shown)
VL: QAVVTQESALTTSPGGTVILTCRSSTGAVTTSNYANWVQEKPDHLFTGLIGGTSNRAPGVPVRFSGSLIGDKAALTITGAQTEDDAMYFCALWYSTHYVFGGGTKVTVL
VH: QVQLQQSDAELVKPGASVKISCKVSGYTFTDHTIHWMKQRPEQGLEWIGYIYPRDGSTKYNEKFKGKATLTADKSSSTAYMQLNSLTSEDSAVYFCARDYGYAFDYWGQGTTLTVSS
modifications: here or on the partner: biotinylated (position not given)
  O.D. (mean): -0.02 O.D.
